The values below come from PMC4191077, “Modeling hemoglobin and hemoglobin:haptoglobin complex clearance in a non-rodent species–pharmacokinetic and therapeutic implications” (Frontiers in Physiology, 2014).

This experiment concerns the target T1, Dog haptoglobin (purified) (dog, UniProt P19006 1-83; P19006 85-329).
T1 construct: haptoglobin alpha chain, dog; haptoglobin beta chain, dog; The supplier is named only for the fluorescent labelling; also called dog Hp; source: bought: Lee Biosolutions (St. Louis, Missouri USA); copies: 2 + 2
T1 sequence (looked up) 1: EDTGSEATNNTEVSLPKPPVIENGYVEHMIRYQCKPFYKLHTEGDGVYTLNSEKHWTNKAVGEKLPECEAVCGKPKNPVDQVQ
T1 sequence (looked up) 2: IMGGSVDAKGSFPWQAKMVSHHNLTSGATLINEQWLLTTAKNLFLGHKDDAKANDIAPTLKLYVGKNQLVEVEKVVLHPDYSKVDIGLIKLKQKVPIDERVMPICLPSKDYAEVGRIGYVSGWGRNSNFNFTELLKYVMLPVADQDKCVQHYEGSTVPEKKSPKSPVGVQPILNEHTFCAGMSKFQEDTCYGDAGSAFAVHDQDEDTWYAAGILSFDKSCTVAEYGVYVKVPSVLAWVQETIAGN
Nature of the experiment: SEC; purified standards of Hb and Hb:Hp complexes on a BioSep-SEC-S3000 column (600 x 7.5 mm), detection at 405 nm. To be noted: both partners purified. (In general: Size exclusion chromatography separates by hydrodynamic size, large species first.)

B1: Dog hemoglobin (natural protein)
chain 1: not shown
chain 2: not shown
notes: hemoglobin subunit alpha, dog; hemoglobin subunit beta, dog; also called dog Hb; purified dog Hb; source: prepared using a standardized method previously described (Palmer et al., 2009)
Take B1: the binding result was “binds”.
